Assay results reported in publication PMC4592949 (eLife, 2015).

T1: recombinant HERC2 2540-2700 (human, UniProt O95714 2540-2700)
T1 construct: HERC2, residues 2540-2700; source: E. coli, purified (Ni-IMAC, Senp1 cleavage, Q-sepharose, Superdex 75); not shown: His6-Sumo, N-terminal, cleaved
T1 sequence (looked up): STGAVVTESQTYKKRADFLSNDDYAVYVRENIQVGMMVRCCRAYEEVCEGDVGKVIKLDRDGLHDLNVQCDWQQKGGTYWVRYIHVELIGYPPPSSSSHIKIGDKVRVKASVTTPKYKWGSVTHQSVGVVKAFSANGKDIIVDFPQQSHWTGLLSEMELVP

B1: NCOA4 383-522-GST (domain or fragment, human, UniProt Q13772-1 383-522, looked up)
chain: SMVTEDWLVQNHQDPCKVEEVCRANEPCTSFAECVCDENCEKEALYKWLLKKEGKDKNGMPVEPKPEPEKHKDSLNMWLCPRKEVIEQTKAPKAMTPSRIADSFQVIKNSPLSEWLIRPPYKEGSPKEVPGTEDRAGKQK
notes: also called NCOA4-GST; source: E. coli BL21 (DE3) Rosetta, purified (Ni-IMAC, glutathione Sepharose, Senp1 cleavage); not shown: His6-Sumo, N-terminal, cleaved; GST, C-terminal, kept

Legend:
Conditions in all cases: both partners purified
NCOA4 383-522-GST = molecular target: B1; experiment: pull-down; NCOA4-GST fragments on glutathione Sepharose 4B (in one panel pre-treated with DFO), mixed with 50 μg recombinant HERC2 fragments; 30 min at 4°C; 150 mM NaCl, 20 mM Tris pH 7.4, 2 mM DTT, 0.5% Nonidet P-40; Coomassie stain
[1] = molecular target: T2, apoferritin purified from horse spleen (containing both FTH1 and FTL) (horse, UniProt Q8MIP0 1-182; P02791 1-175); experiment: pull-down; NCOA4-GST fragments on glutathione Sepharose 4B, mixed with 50 μg apoferritin from equine spleen; 30 min at 4°C; 150 mM NaCl, 20 mM Tris pH 7.4, 2 mM DTT, 0.5% Nonidet P-40; SDS-PAGE and Coomassie stain
T2 construct: ferritin heavy chain (FTH1), horse, from spleen apoferritin; ferritin light chain (FTL), horse, from spleen apoferritin; Ferritin is a complex of 24 subunits, a mixture of heavy and light chains; also called horse spleen apoferritin; apoferritin purified from equine spleen; source: bought: Sigma A3641, apoferritin purified from equine spleen

[2] = molecular target: T3, recombinant FTH1-only ferritin complex, wild type (human, UniProt P02794 2-183); experiment: pull-down; NCOA4 383-522-GST on glutathione Sepharose 4B, mixed with 50 μg recombinant FTH1-only or FTL-only complexes; 30 min at 4°C; 150 mM NaCl, 20 mM Tris pH 7.4, 2 mM DTT, 0.5% Nonidet P-40; Coomassie stain
T3 construct: Purified as 450 kDa complexes; also called FTH1^WT; FTH1-only complexes; source: E. coli, purified (Ni-IMAC, Senp1 cleavage, Q-sepharose, Superose 6 gel filtration); not shown: His6-Sumo, N-terminal, cleaved; copies: 24

[3] = molecular target: T1, recombinant HERC2 2540-2700; experiment: pull-down; NCOA4-GST fragments on glutathione Sepharose 4B (in one panel pre-treated with DFO), mixed with 50 μg recombinant HERC2 fragments; 30 min at 4°C; 150 mM NaCl, 20 mM Tris pH 7.4, 2 mM DTT, 0.5% Nonidet P-40; Coomassie stain

T2 sequence (Q8MIP0 whole entry, chain 1 of 2, the tested form may be a part): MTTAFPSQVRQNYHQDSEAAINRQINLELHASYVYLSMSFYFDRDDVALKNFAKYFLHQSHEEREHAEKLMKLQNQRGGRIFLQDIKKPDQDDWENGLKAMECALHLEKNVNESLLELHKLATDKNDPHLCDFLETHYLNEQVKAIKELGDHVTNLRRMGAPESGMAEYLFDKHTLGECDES
T2 sequence (P02791 whole entry, chain 2 of 2, the tested form may be a part): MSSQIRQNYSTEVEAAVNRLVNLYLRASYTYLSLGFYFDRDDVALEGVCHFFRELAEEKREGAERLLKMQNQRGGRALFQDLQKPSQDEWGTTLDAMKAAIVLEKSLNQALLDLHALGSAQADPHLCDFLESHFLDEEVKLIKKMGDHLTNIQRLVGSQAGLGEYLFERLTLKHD
T3 sequence (P02794 2-183, one chain of several): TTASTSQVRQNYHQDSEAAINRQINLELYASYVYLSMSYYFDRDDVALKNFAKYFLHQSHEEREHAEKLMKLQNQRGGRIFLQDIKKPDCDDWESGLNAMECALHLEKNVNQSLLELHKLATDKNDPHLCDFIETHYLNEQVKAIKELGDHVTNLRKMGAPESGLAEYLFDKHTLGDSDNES

| Binder | binding result (NCOA4 383-522-GST) | binding result [1] | binding result [2] | binding result [3] |
| --- | --- | --- | --- | --- |
| recombinant HERC2 CUL7 domain (amino acids 2553-2639) (domain or fragment, also called minimal CUL7 domain; source: E. coli, purified (Ni-IMAC, Senp1 cleavage, Q-sepharose, Superdex 75); not shown: His6-Sumo, N-terminal, cleaved) not shown | binds |  |  |  |
| KAMTPSRIADSFQVIKNSPLSEWLIRPPYKEGSPKEVPGTEDRAGKQK (domain or fragment, human, UniProt Q13772-1 475-522, looked up, source: E. coli BL21 (DE3) Rosetta, purified (Ni-IMAC, glutathione Sepharose, Senp1 cleavage); not shown: His6-Sumo, N-terminal, cleaved; GST, C-terminal, kept) [NCOA4 475-522-GST] |  | binds |  |  |
| B1 |  | binds | binds | binds |
